In patent US20250019737A1:

Tests used:
[1] = molecular target: nDHFR-linker 1-His6-Ub (pND-Ub) (mouse) (UniProt P00375)
[2] = molecular target: nDHFR-linker 1-His6-Ub (pND-Ub) (mouse) (UniProt P00375); assay: cell-based or functional assay

Sequence of vWA (P00375 whole entry): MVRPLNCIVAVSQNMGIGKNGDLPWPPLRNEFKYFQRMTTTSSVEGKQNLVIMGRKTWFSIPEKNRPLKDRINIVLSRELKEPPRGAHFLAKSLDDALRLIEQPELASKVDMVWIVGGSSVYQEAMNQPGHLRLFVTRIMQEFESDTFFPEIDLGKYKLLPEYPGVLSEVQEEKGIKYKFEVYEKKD
Sequence of vWA T173,175R (P00375 whole entry): as above
Sequence of vWA Q149A (P00375 whole entry, stated change not applied): as the sequence (P00375 whole entry) above
Sequence of vWA Q149R (P00375 whole entry, stated change not applied): as the sequence (P00375 whole entry) above

| Growth efficiency (max growth density divided by the time of half max growth); number matched to the legend entry by its order in the column and its grey tone [1] | bacterial growth on trimethoprim, split DHFR, incomplete ubiquitination cascade (ΔE1, ΔE2) [2] [µg/mL] | Substance |
| --- | --- | --- |
| 715 | – | vWA Q149A (from UniProt P00375) |
| 62 | – | vWA T173,175R (from UniProt P00375) |
| – | 0.1 | cDHFR-Vps9 (pCD-Sub) (from UniProt P00375 109-187; P54787 1-451) |
| 516 | – | vWA Q149R (from UniProt P00375) |
| 1230 | – | vWA (from UniProt P00375) |
